# According to the supplement of paper PMC9732359:
# ± gives the uncertainty stated by the source.
# Test: protein stability index of a GFP-peptide fusion (yeast GPS) (PSI 1-4); higher = more stable; sorted into four equal gates, so the index is relative within each strain
# Summary of the method: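 The protein stability index of a peptide was calculated by multiplying its read frequency in each gate by that gate's number and adding the products. The peptides were tiled 17-residue stretches of yeast proteins, fused downstream of GFP on a Cherry-expressing plasmid and carried in yeast as a pooled library. Mid-log cultures in leucine-free medium were sorted into four equal gates by GFP/Cherry ratio, and each gate's plasmids were PCR-amplified and Illumina-sequenced.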
Sequence,protein stability index (doa10∆),protein stability index (pdr5∆),protein stability index (san1∆),protein stability index (ubr1∆)
LQCPMLYVESTGKFVLQ [CSN12],2.34 ± 0.12,2.98 ± 0.12,2.43 ± 0.15,2.68 ± 0.1
RWEMEAFGEFSLEGCVE [FAS2],3.28 ± 0.17,3.36 ± 0.16,2.98 ± 0.095,2.83 ± 0.14
YVKAVSDKAQLNVVMKN [SMC4],2.1 ± 0.074,2.07 ± 0.063,1.6 ± 0.11,2.19 ± 0.053
DSESDSDSETNHKSKDN [SKP1],2.75 ± 0.053,3.04 ± 0.051,3 ± 0.039,3.1 ± 0.044
LSSMRFKPSQEPEFHAL [RRI1],2.58 ± 0.053,2.75 ± 0.05,2.75 ± 0.075,2.42 ± 0.04
GNNPSWVNNPKKRFTPH [YDL088C/ASM4],3.42 ± 0.23,,,
SYKMNSSAADITMESVH [PRP8],3.32 ± 0.11,3.19 ± 0.08,3.21 ± 0.095,3.17 ± 0.067
EQSVKTQNSRHYMVHEA [LIN1],2.62 ± 0.25,2.82 ± 0.11,2.49 ± 0.089,
YSRILKSMGRKCFDDIE [YCG1],3.16 ± 0.17,2.35 ± 0.12,2.92 ± 0.21,2.16 ± 0.13
MFLEFQSTQTDLEKTER [SMC2],3.31 ± 0.1,2.8 ± 0.14,2.86 ± 0.25,2.64 ± 0.15
SKKTGQFNAQGVRDINC [POP1],,,3.16 ± 0.12,
TYLNEVLEKDAAIVKKY [YGR119C/NUP57],3.27 ± 0.11,3.37 ± 0.093,2.99 ± 0.076,3.08 ± 0.069
LYNVMGINKKKLLAISK [RPC31],2.83 ± 0.26,2.3 ± 0.16,3.67 ± 0.095,3.5 ± 0.26
EHRIRVFFDKRIGQEVD [RPS6A],3.25 ± 0.14,3.09 ± 0.14,2.6 ± 0.29,2.87 ± 0.2
RGIPRLSEDELRELDVE [SMC4],3.44 ± 0.14,3.68 ± 0.21,3.36 ± 0.14,3.57 ± 0.11
PSTGGVKKPHRYKPGTV [HHT1],1.59 ± 0.065,1.62 ± 0.057,1.64 ± 0.097,1.81 ± 0.072
EIEDGQDGGVTPYSNES [RPO21],3.49 ± 0.1,3.35 ± 0.069,3.38 ± 0.049,3.22 ± 0.08
VKDLGQGLKLAKKHKLN [SMC3],3.12 ± 0.11,2.92 ± 0.13,2.83 ± 0.097,2.81 ± 0.068
CLDQMTEQFCATLNYID [SRB7],2.39 ± 0.043,2.87 ± 0.047,2.99 ± 0.049,2.65 ± 0.039
FTVNVLYPDSSSFKKNL [RPN3],2.08 ± 0.057,2.59 ± 0.067,2.55 ± 0.063,2.44 ± 0.057
PYKYRLREEIFIANEGV [RPL2A],2.88 ± 0.096,2.94 ± 0.085,2.29 ± 0.067,2.86 ± 0.054
YHSGRLLIQGPKASSAK [ITC1],3.15 ± 0.11,3.29 ± 0.078,3.2 ± 0.059,3.17 ± 0.073
DSKNTPNVFDKDSYVRI [YDL088C/ASM4],3.01 ± 0.12,3.11 ± 0.048,3.06 ± 0.072,3.25 ± 0.051
EDGLLEGLDELPKIIQL [SOH1],3.11 ± 0.07,3.3 ± 0.047,3.12 ± 0.044,3.15 ± 0.051
FKAIHGSQLRLSEWEEY [YCS4],1.27 ± 0.058,1.58 ± 0.05,2 ± 0.12,1.29 ± 0.029
DIFGANAASGSNSNVTN [YOR098C/NUP1],2.11 ± 0.064,1.65 ± 0.054,1.64 ± 0.11,2.63 ± 0.079
DENAPVATNANATTDQE [PRE10],3.09 ± 0.23,3.33 ± 0.15,3.4 ± 0.17,
